The results in this text go back to patent US20250000946A1 (WUXI BIOLOGICS IRELAND, published 2025).

In general, EC50 refers to the concentration giving half of the maximal effect. A high value points to a less potent agent.

Assay [1] has as its target T1, Human IL-2Rβ/γ (intermediate affinity IL-2 receptor) (human, UniProt P14784 27-551; P31785 23-369).
T1 construct: whole, on cells; also called IL-2Rβ/γc; IL-2Rβ (CD122) and γ (CD132)
T1 sequence (looked up) 1: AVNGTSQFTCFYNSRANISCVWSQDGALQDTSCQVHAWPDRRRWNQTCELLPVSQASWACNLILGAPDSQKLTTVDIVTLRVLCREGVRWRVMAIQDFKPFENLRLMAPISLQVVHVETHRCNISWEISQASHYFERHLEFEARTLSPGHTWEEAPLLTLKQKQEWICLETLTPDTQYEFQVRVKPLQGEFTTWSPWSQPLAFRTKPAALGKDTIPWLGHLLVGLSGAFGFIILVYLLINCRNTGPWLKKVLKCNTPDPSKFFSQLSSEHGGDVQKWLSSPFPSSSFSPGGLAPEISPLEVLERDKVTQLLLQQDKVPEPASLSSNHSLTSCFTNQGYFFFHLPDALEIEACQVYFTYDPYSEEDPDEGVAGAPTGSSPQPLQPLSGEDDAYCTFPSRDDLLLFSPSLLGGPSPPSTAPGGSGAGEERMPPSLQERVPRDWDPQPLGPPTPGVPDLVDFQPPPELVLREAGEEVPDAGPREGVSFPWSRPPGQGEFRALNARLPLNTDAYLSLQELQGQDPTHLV
T1 sequence (looked up) 2: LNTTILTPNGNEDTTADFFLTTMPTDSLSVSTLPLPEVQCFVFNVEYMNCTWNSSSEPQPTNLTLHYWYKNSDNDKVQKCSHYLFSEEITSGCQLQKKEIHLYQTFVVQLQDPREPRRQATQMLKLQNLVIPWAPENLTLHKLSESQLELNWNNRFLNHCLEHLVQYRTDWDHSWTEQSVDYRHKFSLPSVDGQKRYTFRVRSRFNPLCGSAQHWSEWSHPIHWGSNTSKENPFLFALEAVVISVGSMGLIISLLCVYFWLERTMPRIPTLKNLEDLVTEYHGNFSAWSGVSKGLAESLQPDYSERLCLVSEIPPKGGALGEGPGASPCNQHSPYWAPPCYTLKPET
The experiment in a line: FACS, HH cells. On the procedure:
(§1) Human cutaneous T cell lymphoma HH cells, malignant non-Hodgkin's lymphoma NK92 cells and cutaneous T cell lymphoma MJ20 cells were used for binding assay. They both constitutively express IL-2Rβ (CD122) and […] (CD132), and NK92 and MJ20 also expresses IL-2Rα (CD25). HH, NK92 and MJ20 cells were cultured following ATCC guidance, then transferred to a 96-plate for binding analysis. Cells were incubated with IL-2/Fc fusion proteins at the indicated concentrations for 30 min at 4° C. to avoid internalization. Binding was detected by 2nd antibody of PE-anti-human Fc at 4° C. for another 30 min. The median fluorescence intensity (MFI) on HH and NK92 cells was measured using FACS.
(In flow cytometry, cells or beads pass a laser one at a time.)

Assay [2] has as its target T2, Human IL-2Rα/β/γ complex (high affinity IL-2 receptor) (human, UniProt P01589 22-272; P14784 27-551; P31785 23-369).
T2 construct: whole, on cells
T2 sequence (looked up) 1: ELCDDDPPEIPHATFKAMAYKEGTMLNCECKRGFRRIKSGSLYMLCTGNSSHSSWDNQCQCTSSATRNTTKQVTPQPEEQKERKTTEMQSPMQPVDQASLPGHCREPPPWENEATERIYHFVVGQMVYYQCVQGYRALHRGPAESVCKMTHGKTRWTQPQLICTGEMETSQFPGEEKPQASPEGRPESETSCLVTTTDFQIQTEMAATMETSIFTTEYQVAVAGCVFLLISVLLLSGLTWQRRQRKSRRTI
T2 sequence (looked up) 2: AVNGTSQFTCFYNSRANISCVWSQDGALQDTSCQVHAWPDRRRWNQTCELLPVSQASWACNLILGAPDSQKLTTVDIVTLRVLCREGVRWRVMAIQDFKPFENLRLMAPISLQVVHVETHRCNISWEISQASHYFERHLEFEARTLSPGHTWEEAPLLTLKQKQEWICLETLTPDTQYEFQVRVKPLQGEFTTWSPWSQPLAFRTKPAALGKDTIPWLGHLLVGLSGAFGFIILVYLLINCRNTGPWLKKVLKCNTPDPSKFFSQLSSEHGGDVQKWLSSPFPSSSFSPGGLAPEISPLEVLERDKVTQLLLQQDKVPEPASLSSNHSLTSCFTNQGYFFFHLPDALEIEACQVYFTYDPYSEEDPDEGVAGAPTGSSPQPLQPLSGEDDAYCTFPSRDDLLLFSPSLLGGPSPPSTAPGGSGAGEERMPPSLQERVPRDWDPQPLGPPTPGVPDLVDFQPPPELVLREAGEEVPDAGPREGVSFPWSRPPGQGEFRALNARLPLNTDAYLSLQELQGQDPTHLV
T2 sequence (looked up) 3: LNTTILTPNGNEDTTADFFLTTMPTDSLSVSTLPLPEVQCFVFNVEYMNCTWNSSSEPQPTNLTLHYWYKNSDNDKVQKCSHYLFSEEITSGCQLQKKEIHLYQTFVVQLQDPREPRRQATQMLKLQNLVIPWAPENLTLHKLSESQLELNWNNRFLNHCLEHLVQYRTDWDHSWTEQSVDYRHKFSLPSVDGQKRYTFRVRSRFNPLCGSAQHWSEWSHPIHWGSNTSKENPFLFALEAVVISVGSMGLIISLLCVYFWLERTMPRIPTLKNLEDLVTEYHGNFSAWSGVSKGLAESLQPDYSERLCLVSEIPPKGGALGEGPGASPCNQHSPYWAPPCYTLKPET
The experiment in a line: FACS, MJ20 cells. The procedure:
as §1
(§2) Affinity of IL-2 variants to IL-2Rα/β/γ supported the same results (FIG. 8 and Table 7). […] And T2U0.E44-26, T2U0.E44-27, T2U0.E44-29 and T2U0.E44-30 induced hundreds to thousands affinity reduction in Treg compared to T2U0.E44-1. Binding curves in MJ20 cells (IL-2Rα/β/γ) also achieved similar trend (FIG. 8b). As a result, the method of C-terminal truncation and substitution of 129 was available to achieve IL-2Rβγ attenuated IL-2 variants.

Assay [3] concerns the target T1, Human IL-2Rβ/γ (intermediate affinity …). Description: cell-based or functional assay.
Assay [4] concerns the target T2, Human IL-2Rα/β/γ complex (high affinity …). The experiment in a line: cell-based or functional assay.
Assay [5] concerns the target T1, Human IL-2Rβ/γ (intermediate affinity …). The experiment in a line: FACS, HH cells; EC50 fold vs T2U0.E44-1. On the procedure:
as §1

Assay [6] has as its target T2, Human IL-2Rα/β/γ complex (high affinity …). Description: FACS, MJ20 cells; EC50 fold vs T2U0.E44-1. The procedure: as §1, §2

B1: W3XX115-T2U0.E44-26.uIgG4V1 (Fc fusion)
chain: APTSSSTKKTQLQLEHLLLDLQMILNGINNYKNPKLTRMLTFKFYMPKKATELKHLQCLEEELKPLEEVLNLAQSKNFHLRPRDLISNINVIVLELKGSETTFMCEYADETATIVEFLNRWITFCQSILESKYGPPCPPCPAPEFLGGPSVFLFPPKPKDTLMISRTPEVTCVVVDVSQEDPEVQFNWYVDGVEVHNAKTKPREEQFNSTYRVVSVLTVLHQDWLNGKEYKCKVSNKGLPSSIEKTISKAKGQPREPQVYTLPPCQEEMTKNQVSLWCLVKGFYPSDIAVEWESNGQPENNYKTTPPVLDSDGSFFLYSRLTVDKSRWQEGNVFSCSVMHEALHNHYTQKSLSLSLG
heavy: EIQLQQSGPELVKPGASVKVSCKASGYSFTDYNMYWVKQSHGESLEWIGYIDPYNGGTRYNQKFKGKATLTVDKSSSTAFMHLNSLTSEDSAVYYCARNGHWDGAWFAYWGQGTLVTVSAASTKGPSVFPLAPCSRSTSESTAALGCLVKDYFPEPVTVSWNSGALTSGVHTFPAVLQSSGLYSLSSVVTVPSSSLGTKTYTCNVDHKPSNTKVDKRVESKYGPPCPPCPAPEFLGGPSVFLFPPKPKDTLMISRTPEVTCVVVDVSQEDPEVQFNWYVDGVEVHNAKTKPREEQFNSTYRVVSVLTVLHQDWLNGKEYKCKVSNKGLPSSIEKTISKAKGQPREPQVCTLPPSQEEMTKNQVSLSCAVKGFYPSDIAVEWESNGQPENNYKTTPPVLDSDGSFFLVSRLTVDKSRWQEGNVFSCSVMHEALHNHYTQKSLSLSLG
light: DIQMNQSPSSLSASLGDTITITCHASQNINVWLSWYQQKPGNIPKLLIYKASNLHTGVPSRFSGSRSGTGFTLTISSLQPEDIATYYCHQGQSYPFTFGSGTKLEIKRTVAAPSVFIFPPSDEQLKSGTASVVCLLNNFYPREAKVQWKVDNALQSGNSQESVTEQDSKDSTYSLSSTLTLSKADYEKHKVYACEVTHQGLSSPVTKSFNRGEC
notes: IL-2 del STLT and I129L; E44 format, IgG4
B1 registered a 50% effective concentration (EC50) in assay [1] of 0.993 µM. The same molecule displayed an EC50 in assay [2] of 0.0428 µM. In assay [3], the “Potency in human CD8+ T EC50” value was 0.649 µM and the “Potency reduction (CD8+ T)” value is 32.5 fold. Also, in assay [4], the “Potency in human Treg EC50” value is 0.00116 µM and the “Potency reduction (Treg)” value is 460 fold. In addition, the Affinity reduction in assay [5] was 18.5 fold. This molecule also gave an Affinity reduction in assay [6] of 3.1 fold.

B2: W3XX115-T2U0.E44-30.uIgG4V1 (Fc fusion)
chain: APTSSSTKKTQLQLEHLLLDLQMILNGINNYKNPKLTRMLTFKFYMPKKATELKHLQCLEEELKPLEEVLNLAQSKNFHLRPRDLISNINVIVLELKGSETTFMCEYADETATIVEFLNRWITFCQSITESKYGPPCPPCPAPEFLGGPSVFLFPPKPKDTLMISRTPEVTCVVVDVSQEDPEVQFNWYVDGVEVHNAKTKPREEQFNSTYRVVSVLTVLHQDWLNGKEYKCKVSNKGLPSSIEKTISKAKGQPREPQVYTLPPCQEEMTKNQVSLWCLVKGFYPSDIAVEWESNGQPENNYKTTPPVLDSDGSFFLYSRLTVDKSRWQEGNVFSCSVMHEALHNHYTQKSLSLSLG
heavy: EIQLQQSGPELVKPGASVKVSCKASGYSFTDYNMYWVKQSHGESLEWIGYIDPYNGGTRYNQKFKGKATLTVDKSSSTAFMHLNSLTSEDSAVYYCARNGHWDGAWFAYWGQGTLVTVSAASTKGPSVFPLAPCSRSTSESTAALGCLVKDYFPEPVTVSWNSGALTSGVHTFPAVLQSSGLYSLSSVVTVPSSSLGTKTYTCNVDHKPSNTKVDKRVESKYGPPCPPCPAPEFLGGPSVFLFPPKPKDTLMISRTPEVTCVVVDVSQEDPEVQFNWYVDGVEVHNAKTKPREEQFNSTYRVVSVLTVLHQDWLNGKEYKCKVSNKGLPSSIEKTISKAKGQPREPQVCTLPPSQEEMTKNQVSLSCAVKGFYPSDIAVEWESNGQPENNYKTTPPVLDSDGSFFLVSRLTVDKSRWQEGNVFSCSVMHEALHNHYTQKSLSLSLG
light: DIQMNQSPSSLSASLGDTITITCHASQNINVWLSWYQQKPGNIPKLLIYKASNLHTGVPSRFSGSRSGTGFTLTISSLQPEDIATYYCHQGQSYPFTFGSGTKLEIKRTVAAPSVFIFPPSDEQLKSGTASVVCLLNNFYPREAKVQWKVDNALQSGNSQESVTEQDSKDSTYSLSSTLTLSKADYEKHKVYACEVTHQGLSSPVTKSFNRGEC
notes: IL-2 del STLT and I129T; E44 format, IgG4
In assay [2], B2 returned a concentration giving a half-maximal response (EC50) of 0.183 µM. In assay [3], the “Potency in human CD8+ T EC50” value is 0.493 µM and the “Potency reduction (CD8+ T)” value came to 24.7 fold. In assay [4], the “Potency in human Treg EC50” value worked out at 0.00264 µM and the “Potency reduction (Treg)” value stood at 1050 fold. Moreover, in assay [6], the Affinity reduction was found to be 13 fold.

B3: W3XX115-T2U0.E44-27.uIgG4V1 (Fc fusion)
chain: APTSSSTKKTQLQLEHLLLDLQMILNGINNYKNPKLTRMLTFKFYMPKKATELKHLQCLEEELKPLEEVLNLAQSKNFHLRPRDLISNINVIVLELKGSETTFMCEYADETATIVEFLNRWITFCQSIVESKYGPPCPPCPAPEFLGGPSVFLFPPKPKDTLMISRTPEVTCVVVDVSQEDPEVQFNWYVDGVEVHNAKTKPREEQFNSTYRVVSVLTVLHQDWLNGKEYKCKVSNKGLPSSIEKTISKAKGQPREPQVYTLPPCQEEMTKNQVSLWCLVKGFYPSDIAVEWESNGQPENNYKTTPPVLDSDGSFFLYSRLTVDKSRWQEGNVFSCSVMHEALHNHYTQKSLSLSLG
heavy: EIQLQQSGPELVKPGASVKVSCKASGYSFTDYNMYWVKQSHGESLEWIGYIDPYNGGTRYNQKFKGKATLTVDKSSSTAFMHLNSLTSEDSAVYYCARNGHWDGAWFAYWGQGTLVTVSAASTKGPSVFPLAPCSRSTSESTAALGCLVKDYFPEPVTVSWNSGALTSGVHTFPAVLQSSGLYSLSSVVTVPSSSLGTKTYTCNVDHKPSNTKVDKRVESKYGPPCPPCPAPEFLGGPSVFLFPPKPKDTLMISRTPEVTCVVVDVSQEDPEVQFNWYVDGVEVHNAKTKPREEQFNSTYRVVSVLTVLHQDWLNGKEYKCKVSNKGLPSSIEKTISKAKGQPREPQVCTLPPSQEEMTKNQVSLSCAVKGFYPSDIAVEWESNGQPENNYKTTPPVLDSDGSFFLVSRLTVDKSRWQEGNVFSCSVMHEALHNHYTQKSLSLSLG
light: DIQMNQSPSSLSASLGDTITITCHASQNINVWLSWYQQKPGNIPKLLIYKASNLHTGVPSRFSGSRSGTGFTLTISSLQPEDIATYYCHQGQSYPFTFGSGTKLEIKRTVAAPSVFIFPPSDEQLKSGTASVVCLLNNFYPREAKVQWKVDNALQSGNSQESVTEQDSKDSTYSLSSTLTLSKADYEKHKVYACEVTHQGLSSPVTKSFNRGEC
notes: IL-2 del STLT and I129V; E44 format, IgG4
As to B3, the figures for the EC50 in assay [1] and in assay [2] were 2.75 µM and 0.0753 µM, respectively. Further, the “Potency in human CD8+ T EC50” value in assay [3] was 0.371 µM. The “Potency reduction (CD8+ T)” value in assay [3] stood at 18.5 fold. Further, in assay [4], the “Potency in human Treg EC50” value was 0.00185 µM. In assay [4], the “Potency reduction (Treg)” value came out at 737 fold. Moreover, the Affinity reduction in assay [5] was 51.1 fold; in assay [6], 5.4 fold.
